According to patent US20250346685A1 (published 2025):

B1: GPC3 × CD3 κλ002 (bispecific antibody, human IgG4 S228P, kappa, lambda)
light 1: DVVMTQSPLSLPVTPGEPASISCRSSQSIVHSNGNTYLEWYLKKPGQSPQLLIYKVSNRFSGVPDRFSGSGSGTDFTLKISRVEAEDVGVYFCLQVTHVPLTFGQGTKLEIKRTVAAPSVFIFPPSDEQLKSGTASVVCLLNNFYPREAKVQWKVDNALQSGNSQESVTEQDSKDSTYSLSSTLTLSKADYEKHKVYACEVTHQGLSSPVTKSFNRGEC
heavy 1: QVQLVQSGAEVKKPGSSVKVSCKASGYTFADYEIHWVREAPGQGLEWMGAIHPGSGGTAYAQKFQGRVTLTADESSTTAYMELSSLRSEDTAVYYCTRYYSFAYWGQGTLVTVSSASTKGPSVFPLAPCSRSTSESTAALGCLVKDYFPEPVTVSWNSGALTSGVHTFPAVLQSSGLYSLSSVVTVPSSSLGTKTYTCNVDHKPSNTKVDKRVESKYGPPCPPCPAPEFEGGPSVFLFPPKPKDTLMISRTPEVTCVVVDVSQEDPEVQFNWYVDGVEVHNAKTKPREEQFNSTYRVVSVLTVLHQDWLNGKEYKCKVSNKGLASSIEKTISKAKGQPREPQVCTLPPSQEEMTKNQVSLSCAVKGFYPSDIAVEWESNGQPENNYKTTPPVLDSDGSFFLVSKLTVDKSRWQEGNVFSCSVMHEALHNHYTQKSLSLSLGK
light 2: QAVVTQEPSLTVSPGGTVTLTCRSSTGAVTTSNYANWVQEKPGQAPRGLIGGTNKRAPWTPARFSGSLLGGKAALTITGAQAEDEAEYYCVLWYSNLWVFGGGTKLTVLGQPKAAPSVTLFPPSSEELQANKATLVCLISDFYPGAVTVAWKADSSPVKAGVETTTPSKQSNNKYAASSYLSLTPEQWKSHRSYSCQVTHEGSTVEKTVAPTECS
heavy 2: EVQLVESGGGLVQPGGSLRLSCAASGFTFNTYAMNWVRKAPGKGLEWVGRIRSKYNNYATYYADSVKDRFTISRDDSKNSLYLQMNSLKTEDTAVYYCVRHGNFGNSYVSWFAYWGQGTLVTVSSASTKGPSVFPLAPCSRSTSESTAALGCLVKDYFPEPVTVSWNSGALTSGVHTFPAVLQSSGLYSLSSVVTVPSSSLGTKTYTCNVDHKPSNTKVDKRVESKYGPPCPPCPAPEFEGGPSVFLFPPKPKDTLMISRTPEVTCVVVDVSQEDPEVQFNWYVDGVEVHNAKTKPREEQFNSTYRVVSVLTVLHQDWLNGKEYKCKVSNKGLASSIEKTISKAKGQPREPQVYTLPPCQEEMTKNQVSLWCLVKGFYPSDIAVEWESNGQPENNYKTTPPVLDSDGSFFLYSKLTVDKSRWQEGNVFSCSVMHEALHNHYTQKSLSLSLGK
notes: also called GPC3×CD3 κλ bispecific antibody
B2: GPC3 × CD3 κλ003 (bispecific antibody, human IgG4 S228P, kappa, lambda)
light 1: DVVMTQSPLSLPVTPGEPASISCRSSQSIVHSNGNTYLEWYLKKPGQSPQLLIYKVSNRFSGVPDRFSGSGSGTDFTLKISRVEAEDVGVYFCLQVTHVPLTFGQGTKLEIKRTVAAPSVFIFPPSDKKLKSGTASVVCLLNNFYPREAKVQWKVDNALQSGNSQESVTEQDSKDSTYSLSSTLTLSKADYEKHKVYACEVTHQGLSSPVTKSFNRGEC
heavy 1: QVQLVQSGAEVKKPGSSVKVSCKASGYTFADYEIHWVREAPGQGLEWMGAIHPGSGGTAYAQKFQGRVTLTADESSTTAYMELSSLRSEDTAVYYCTRYYSFAYWGQGTLVTVSSASTKGPSVFPLAPCSRSTSESTAALGCLVEDYFPEPVTVSWNSGALTSGVHTFPAVLQSSGLYSLSSVVTVPSSSLGTKTYTCNVDHKPSNTKVDERVESKYGPPCPPCPAPEFEGGPSVFLFPPKPKDTLMISRTPEVTCVVVDVSQEDPEVQFNWYVDGVEVHNAKTKPREEQFNSTYRVVSVLTVLHQDWLNGKEYKCKVSNKGLASSIEKTISKAKGQPREPQVCTLPPSQEEMTKNQVSLSCAVKGFYPSDIAVEWESNGQPENNYKTTPPVLDSDGSFFLVSKLTVDKSRWQEGNVFSCSVMHEALHNHYTQKSLSLSLGK
light 2: QAVVTQEPSLTVSPGGTVTLTCRSSTGAVTTSNYANWVQEKPGQAPRGLIGGTNKRAPWTPARFSGSLLGGKAALTITGAQAEDEAEYYCVLWYSNLWVFGGGTKLTVLGQPKAAPSVTLFPPSSEELQANKATLVCLISDFYPGAVTVAWKADSSPVKAGVETTTPSKQSNNKYAASSYLSLTPEQWKSHRSYSCQVTHEGSTVEKTVAPTECS
heavy 2: EVQLVESGGGLVQPGGSLRLSCAASGFTFNTYAMNWVRKAPGKGLEWVGRIRSKYNNYATYYADSVKDRFTISRDDSKNSLYLQMNSLKTEDTAVYYCVRHGNFGNSYVSWFAYWGQGTLVTVSSASTKGPSVFPLAPCSRSTSESTAALGCLVKDYFPEPVTVSWNSGALTSGVHTFPAVLQSSGLYSLSSVVTVPSSSLGTKTYTCNVDHKPSNTKVDKRVESKYGPPCPPCPAPEFEGGPSVFLFPPKPKDTLMISRTPEVTCVVVDVSQEDPEVQFNWYVDGVEVHNAKTKPREEQFNSTYRVVSVLTVLHQDWLNGKEYKCKVSNKGLASSIEKTISKAKGQPREPQVYTLPPCQEEMTKNQVSLWCLVKGFYPSDIAVEWESNGQPENNYKTTPPVLDSDGSFFLYSKLTVDKSRWQEGNVFSCSVMHEALHNHYTQKSLSLSLGK
notes: Human IgG4 knob-into-hole Fc with Ser228Pro, Leu235Glu, Pro329Ala; also called GPC3×CD3 κλ bispecific antibody

Experiments:
[1] = molecular target: T1, human GPC3 on cells (CHO-human GPC3 stably transfected cells; HepG2 tumor cells) (human, UniProt P51654 25-554); test: flow cytometry on CHO-human GPC3 stably transfected cells
T1 construct: whole, on cells; also called Human GPC3-CHO
Method: (§1) CHO-human GPC3, CHO-Cynomolgus monkey GPC3 stably transfected cells or human hepatocellular carcinoma HepG2 tumor cells in logarithmic growth phase were taken. After blocking, the cells were adjusted to 5×10⁵ cells/ml, and 100 μl/well cell suspension was added to 96-well U-shaped plate and centrifuged at 300 g for 5 min. The supernatant was discarded, 100 μL of gradient diluted antibody (with a starting concentration of 1800 nM, 3-fold dilution, 10 gradients) was added to each well, and incubated at 4° C. for 60 min. 50 μL/well Alexa Fluro647 labeled goat anti-human IgG Fc (1:300 dilution) were added to the secondary antibody, incubated on ice for 20 min, added with 50 μL/well PI solution (1:300) after washing once, incubated for 5 min, and flow cytometer was used to make detection.

[2] = molecular target: T2, human CD3 on T cells (Jurkat cells; human peripheral blood CD4+ and CD8+ T-cells) (human, UniProt P07766 23-207); test: flow cytometry on Jurkat cells
T2 construct: whole, on cells; also called CD4T; CD4 + T
Method: The cells were adjusted to 5×10^5 cells/mL with 4% calf serum, 100 μL/well was added to 96-well U-plate, 300 g was centrifuged to removed the supernatant, 100 μL/well of gradient diluted antibody (initial concentration: 1800 nM, 3-fold dilution, 10 gradients) was added and incubated at 4° C. for 60 min. 50 μL/well Alexa Fluro647-labeled goat anti-human IgG Fc (1:300 dilution) was added to the secondary antibody and incubated on ice for 20 min. 50 μL/well PI was added after washing once, incubated for 5 min, and detected with flow cytometer (BD C6).

[3] = molecular target: T1, human GPC3 on cells (CHO-human GPC3 …); test: flow cytometry on HepG2 cells
Method: as §1

[4] = molecular target: T2, human CD3 on T cells (Jurkat cells; …); test: flow cytometry on peripheral blood CD8+ T-cells
Method: (§2) Fresh human or cynomolgus monkey peripheral blood was taken and PBMC was isolated by Ficoll. Paque Plus (GE, 17-1440-03). PBMC was adjusted to 5×10⁵ cells/mL with 4% calf serum (Hyclone, SH30626.06), 100 μL/well was added to a 96-well U-plate, the supernatant was centrifuged off and 100 μL of gradient diluted antibody (with starting concentration of 1800 nM, 3-fold dilution, 10 gradients) was added to each well and incubated for 60 min at 4° C. 50 μL/well Alexa Fluro647 labeled goat anti-human IgG Fc (1:300 dilution) was added to secondary antibody, with ice bath for 20 min. 50 μL/well PI was added after washing once and incubated for 5 min, and flow cytometer (BD Celesta) is used to make detection.

[5] = molecular target: T3, cynomolgus monkey GPC3 on CHO stably transfected cells (cynomolgus monkey, UniProt A0A2K5VK50 24-553); test: flow cytometry on CHO-cynomolgus monkey GPC3 stably transfected cells
T3 construct: whole, on cells; also called Cynomolgus monkey GPC3-CHO; CHO-Cynomolgus monkey GPC3
Method: as §1

[6] = molecular target: T2, human CD3 on T cells (Jurkat cells; …); test: flow cytometry on peripheral blood CD4+ T-cells
Method: as §2

| Binder | EC50 [1] | EC50 [2] | EC50 [3] | EC50 [4] | EC50 [5] | EC50 [6] |
| --- | --- | --- | --- | --- | --- | --- |
| B1 | 2.8 nM | 36 nM | 2.1 nM | 65 nM | 3 nM | 65 nM |
| B2 | 2.9 nM | 26 nM | 2.5 nM | 69 nM | 3 nM | 56 nM |
